Measured values as given in patent publication US20140178854A1.

Columns and labels:
[1] = molecular target: gp70 env protein of amphotropic MLV (4070A envelope), on purified viral particles (amphotropic murine leukemia virus (4070A envelope)); assay: ELISA on plate-bound MLV, dilution factor 10, Exp072-DTV Plate 1
[2] = molecular target: gp70 env protein of amphotropic MLV (4070A envelope), on purified viral particles (amphotropic murine leukemia virus (4070A envelope)); assay: ELISA on plate-bound MLV, dilution factor 10, Exp122-Ana Plate 1
[3] = molecular target: gp70 env protein of amphotropic MLV (4070A envelope), on purified viral particles (amphotropic murine leukemia virus (4070A envelope)); assay: ELISA on plate-bound MLV, dilution factor 250, Exp121-Ana Plate 2
[4] = molecular target: gp70 env protein of amphotropic MLV (4070A envelope), on purified viral particles (amphotropic murine leukemia virus (4070A envelope)); assay: ELISA on plate-bound MLV, dilution factor 156250, Exp125-Ana Plate 2
[5] = molecular target: gp70 env protein of amphotropic MLV (4070A envelope), on purified viral particles (amphotropic murine leukemia virus (4070A envelope)); assay: ELISA on plate-bound MLV, dilution factor 6250, Exp121-Ana Plate 1
[6] = molecular target: gp70 env protein of amphotropic MLV (4070A envelope), on purified viral particles (amphotropic murine leukemia virus (4070A envelope)); assay: ELISA on plate-bound MLV, dilution factor 50, Exp121-Ana Plate 2
[7] = molecular target: gp70 env protein of amphotropic MLV (4070A envelope), on purified viral particles (amphotropic murine leukemia virus (4070A envelope)); assay: ELISA on plate-bound MLV, dilution factor 781250, Exp073-DTV Plate 2
[8] = molecular target: gp70 env protein of amphotropic MLV (4070A envelope), on purified viral particles (amphotropic murine leukemia virus (4070A envelope)); assay: ELISA on plate-bound MLV, dilution factor 31250, Exp074-DTV Plate 1
[9] = molecular target: gp70 env protein of amphotropic MLV (4070A envelope), on purified viral particles (amphotropic murine leukemia virus (4070A envelope)); assay: ELISA on plate-bound MLV, dilution factor 10, inter-assay mean of six experiments
[10] = molecular target: gp70 env protein of amphotropic MLV (4070A envelope), on purified viral particles (amphotropic murine leukemia virus (4070A envelope)); assay: ELISA on plate-bound MLV, dilution factor 156250, Exp073-DTV Plate 1
[11] = molecular target: gp70 env protein of amphotropic MLV (4070A envelope), on purified viral particles (amphotropic murine leukemia virus (4070A envelope)); assay: ELISA on plate-bound MLV, dilution factor 31250, Exp072-DTV Plate 1
[12] = molecular target: gp70 env protein of amphotropic MLV (4070A envelope), on purified viral particles (amphotropic murine leukemia virus (4070A envelope)); assay: ELISA on plate-bound MLV, dilution factor 250, Exp073-DTV Plate 2
[13] = molecular target: gp70 env protein of amphotropic MLV (4070A envelope), on purified viral particles (amphotropic murine leukemia virus (4070A envelope)); assay: ELISA on plate-bound MLV, dilution factor 781250, Exp121-Ana Plate 1
[14] = molecular target: gp70 env protein of amphotropic MLV (4070A envelope), on purified viral particles (amphotropic murine leukemia virus (4070A envelope)); assay: ELISA on plate-bound MLV, dilution factor 156250, Exp121-Ana Plate 1
[15] = molecular target: gp70 env protein of amphotropic MLV (4070A envelope), on purified viral particles (amphotropic murine leukemia virus (4070A envelope)); assay: ELISA on plate-bound MLV, dilution factor 1250, Exp125-Ana Plate 1
[16] = molecular target: gp70 env protein of amphotropic MLV (4070A envelope), on purified viral particles (amphotropic murine leukemia virus (4070A envelope)); assay: ELISA on plate-bound MLV, dilution factor 250, Exp072-DTV Plate 2
[17] = molecular target: gp70 env protein of amphotropic MLV (4070A envelope), on purified viral particles (amphotropic murine leukemia virus (4070A envelope)); assay: ELISA on plate-bound MLV, dilution factor 156250, Exp122-Ana Plate 1
[18] = molecular target: gp70 env protein of amphotropic MLV (4070A envelope), on purified viral particles (amphotropic murine leukemia virus (4070A envelope)); assay: ELISA on plate-bound MLV, dilution factor 250, Exp121-Ana Plate 1
[19] = molecular target: gp70 env protein of amphotropic MLV (4070A envelope), on purified viral particles (amphotropic murine leukemia virus (4070A envelope)); assay: ELISA on plate-bound MLV, dilution factor 50, Exp074-DTV Plate 1
[20] = molecular target: gp70 env protein of amphotropic MLV (4070A envelope), on purified viral particles (amphotropic murine leukemia virus (4070A envelope)); assay: ELISA on plate-bound MLV, dilution factor 156250, Exp073-DTV Plate 2
[21] = molecular target: gp70 env protein of amphotropic MLV (4070A envelope), on purified viral particles (amphotropic murine leukemia virus (4070A envelope)); assay: ELISA on plate-bound MLV, dilution factor 6250, Exp072-DTV Plate 1
[22] = molecular target: gp70 env protein of amphotropic MLV (4070A envelope), on purified viral particles (amphotropic murine leukemia virus (4070A envelope)); assay: ELISA on plate-bound MLV, dilution factor 156250, Exp074-DTV Plate 1
[23] = molecular target: gp70 env protein of amphotropic MLV (4070A envelope), on purified viral particles (amphotropic murine leukemia virus (4070A envelope)); assay: ELISA on plate-bound MLV, dilution factor 1250, Exp122-Ana Plate 2
[24] = molecular target: gp70 env protein of amphotropic MLV (4070A envelope), on purified viral particles (amphotropic murine leukemia virus (4070A envelope)); assay: ELISA on plate-bound MLV, dilution factor 781250, Exp122-Ana Plate 1
[25] = molecular target: gp70 env protein of amphotropic MLV (4070A envelope), on purified viral particles (amphotropic murine leukemia virus (4070A envelope)); assay: ELISA on plate-bound MLV, dilution factor 50, Exp121-Ana Plate 1
[26] = molecular target: gp70 env protein of amphotropic MLV (4070A envelope), on purified viral particles (amphotropic murine leukemia virus (4070A envelope)); assay: ELISA on plate-bound MLV, dilution factor 6250, Exp125-Ana Plate 2

gp70 env protein of amphotropic MLV (4070A envelope), on purified viral particles (amphotropic murine leukemia virus (4070A envelope)), sequence (P21995 whole entry): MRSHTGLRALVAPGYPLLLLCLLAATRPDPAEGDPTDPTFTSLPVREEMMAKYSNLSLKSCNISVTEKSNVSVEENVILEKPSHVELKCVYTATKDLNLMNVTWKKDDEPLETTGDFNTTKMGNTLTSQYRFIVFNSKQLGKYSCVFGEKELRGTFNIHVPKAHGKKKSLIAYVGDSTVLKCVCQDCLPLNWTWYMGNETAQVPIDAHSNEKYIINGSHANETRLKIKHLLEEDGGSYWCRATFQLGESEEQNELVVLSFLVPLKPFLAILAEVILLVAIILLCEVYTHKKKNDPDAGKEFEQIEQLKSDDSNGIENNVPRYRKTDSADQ

With “83A25 monoclonal antibody (rat IgG2a, anti-gp70)” the Mean OD [1] was 1.98 OD, the Mean OD [2] was 2.17 OD and the Mean OD [3] was 2.25 OD. The Mean OD [4] was 0.124 OD, the Mean OD [5] was 0.903 OD and the Mean OD [6] was 2.46 OD. It also gave a Mean OD [7] of 0.11 OD, a Mean OD [8] of 0.253 OD and a Mean OD (inter-assay mean) [9] of 2.3 OD. The Mean OD [10] was 0.14 OD, the Mean OD [11] was 0.202 OD and the Mean OD [12] was 2.12 OD. It also gave a Mean OD [13] of 0.137 OD, a Mean OD [14] of 0.163 OD and a Mean OD [15] of 1.44 OD. For the same substance, the Mean OD [16] was 1.56 OD, the Mean OD [17] was 0.18 OD and the Mean OD [18] was 2.37 OD. For the same substance, the Mean OD [19] was 2.01 OD, the Mean OD [20] was 0.139 OD and the Mean OD [21] was 0.558 OD. For the same substance, the Mean OD [22] was 0.145 OD, the Mean OD [23] was 1.4 OD and the Mean OD [24] was 0.162 OD. It also gave a Mean OD [25] of 2.43 OD and a Mean OD [26] of 0.635 OD.
